# Positions count from the first letter of the chain named.
# B1: マウス抗ヒトCD36モノクローナル抗体 クローン2-66 (antibody, mouse IgG1, V domains shown)
# VH: QVQLQQPGAELVKPGASVRMSCKASGYTFTNYNMHWVKQTPGQGLEWIGVIYPGNGDTSYSQKFKGKATLTADKSSRTGYMQLSSLTSEDSAVYYCTRSGWDDWFFDVWGAGTSVTVSS
# VL: DVLMTQTPLSLPVSLGDQASISCRSSQSIVQRNGITYLEWYQQKTGQSPKLLIYKVSNRFSGVPDRFSGSGSGTDFTLKISRVEAEDLGVYYCFQGSHVPPTFGGGTKLEIK
# notes: also called クローン2−66; 抗CD36抗体
# B2: マウス抗ヒトCD36モノクローナル抗体 クローン4-62 (antibody, mouse IgG2a, V domains shown)
# VH: QIHLVQSGPELKKPGETVKISCKASGYTFTNYGMNWVMQAPGKVLKWMGWINTYTGETTYADDFKGRFAFSLETSASTAYLQINSLKYEDTASYFCARDDGYSFYYDMDYWGQGTSVTVSS
# VL: B1 VL with Q31H, R32T, I35N, E39Q, Q42L, T45P, R82T, P101W
# notes: also called クローン4−62; 抗CD36抗体
# B3: マウス抗ヒトCD36モノクローナル抗体 クローン1-3 (antibody, mouse IgG2b, V domains shown)
# VH: QAQLQQSGAELVRPGASVTLSCKASGYTFTDYEMNWVKQTPVHGLEWIGAIDPEIGGSAYNQKFKGKATLTADKSSSTAYMELRSLTSEDSAVYYCTRSKLPAWFPYWGQGTLVTVSA
# VL: EIKMTQSPSAMYASLGERVTITCKASQDINSYLSWFQQKPGKSPKTLIYRANRLVDGVPSRFSGSGSGQDYSLTISSLEFEDMGIYYCLQYEEFPYTFGGGTKLEIK
# notes: also called クローン1−3; 抗CD36抗体
# B4: マウス抗ヒトCD36モノクローナル抗体 クローン1-36 (antibody, mouse IgG2b, V domains shown)
# VH: QVQLQQSGAELVRPGASVKLSCKALNYTFTDYEMHWVKQTPVHGLEWIGGIHPGSGGTAYNQRFKGKATLTADKSSSTAYIEVSSLTSEDSAVYYCSLTTASAWFAYWGQGTLVTVSV
# VL: B3 VL with E1D, A10S, V55L, F80Y, E92D, Y96L, G100A, I106L
# notes: also called クローン1−36; 抗CD36抗体
# Molecular target: T1, CD36 (CD36発現細胞; pcDNA-CD36を一過性に導入した293T細胞) (human, UniProt P16671 2-472)
# T1 construct: whole, on cells; also called ヒトCD36; CD36発現株
# T1 sequence (P16671 2-472): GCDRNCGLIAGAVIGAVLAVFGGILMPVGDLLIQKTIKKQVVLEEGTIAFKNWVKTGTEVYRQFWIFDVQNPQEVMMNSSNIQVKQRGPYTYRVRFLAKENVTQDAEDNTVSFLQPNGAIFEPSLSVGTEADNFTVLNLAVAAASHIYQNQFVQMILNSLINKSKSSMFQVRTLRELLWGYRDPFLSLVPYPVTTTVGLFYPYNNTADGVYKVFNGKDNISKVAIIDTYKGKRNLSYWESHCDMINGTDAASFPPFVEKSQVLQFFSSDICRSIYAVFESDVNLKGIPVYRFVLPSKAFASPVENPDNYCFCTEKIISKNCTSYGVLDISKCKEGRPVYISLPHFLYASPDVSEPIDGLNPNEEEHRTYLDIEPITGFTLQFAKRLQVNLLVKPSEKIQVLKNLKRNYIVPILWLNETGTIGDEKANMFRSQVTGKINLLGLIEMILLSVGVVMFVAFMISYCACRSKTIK
# Assay: flow cytometry of hybridoma supernatants on CD36-expressing cells
row,Binder,binding result
1,B1,binds
2,B2,binds
3,B3,binds
4,B4,binds

# — JP2010235447A (dated 2010)
